Substitutions are numbered along the chain they refer to.
Tests used:
SNAP-tag (control) = molecular target: T1, SNAP-tag (control) (UniProt P16455); assay: pulldown; conditions: SNAP-tag control background
T1 sequence: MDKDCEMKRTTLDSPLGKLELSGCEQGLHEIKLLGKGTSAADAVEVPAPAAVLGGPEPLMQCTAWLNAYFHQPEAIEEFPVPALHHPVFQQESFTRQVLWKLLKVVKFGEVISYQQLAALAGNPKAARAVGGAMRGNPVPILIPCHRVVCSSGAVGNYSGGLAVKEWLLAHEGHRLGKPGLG

[1] = molecular target: T2, Human estrogen receptor alpha (hERα), full-length, unliganded (Homo sapiens, UniProt P03372 P03372:1-595); assay: EMSA; 25 nM hERα; no difference from sB63; conditions: tags: none stated; baculovirus/insect cells; Invitrogen P2187 or EMD4 Biosciences 330655; label: 32P internal
[2] = molecular target: T2, Human estrogen receptor alpha (hERα), …; assay: EMSA; 10 mM MgCl2, 37 C binding; conditions: tags: none stated; baculovirus/insect cells; Invitrogen P2187 or EMD4 Biosciences 330655; label: 32P internal; stem-loop
[3] = molecular target: T2, Human estrogen receptor alpha (hERα), …; assay: EMSA; about half shifted below 15 nM; more than two-fold stronger than monomer; conditions: tags: none stated; baculovirus/insect cells; Invitrogen P2187 or EMD4 Biosciences 330655; label: 32P-CTP internal; two AptER-1(53nt) units on three-way junction of H. marismortui 5S RNA
[4] = molecular target: T2, Human estrogen receptor alpha (hERα), …; assay: EMSA; no binding; method EMSA or filter; conditions: tags: none stated; baculovirus/insect cells; Invitrogen P2187 or EMD4 Biosciences 330655
[5] = molecular target: T2, Human estrogen receptor alpha (hERα), …; assay: EMSA; 200 nM ERα; two shifted bands; conditions: tags: none stated; baculovirus/insect cells; Invitrogen P2187 or EMD4 Biosciences 330655; label: labeled
[6] = molecular target: Human estrogen receptor beta (hERβ) (Homo sapiens, UniProt Q92731 Q92731:1-530); assay: EMSA; affinity similar to hERα; conditions: tags: none stated; baculovirus/insect cells; EMD4 Biosciences 330657; label: 32P-CTP internal
Experimental: FIGS. 9A-B illustrate the binding specificity of AptER-1, -2 and -3. […] Radiolabeled AptER-1, -2 and -3 (0.1 nM) were incubated with 20 nM hERα, 200 nM hERβ, or 200 μg/ml HeLa nuclear extract (NE). Binding reactions were resolved on a 4.8% polyacrylamide gel (acrylamide:bis-acrylamide=37.5:1) in ¼×TBE buffer. […] Radiolabeled AptER-1, -2 and -3 (0.1 nM) were incubated with 20 nM or 40 nM hERα, or hERβ. Binding reactions were resolved as described above.
To examine the binding specificity of the first set of isolated aptamers, AptER-1, -2 and -3, proteins were presented at high concentrations in ESMA, including hERβ at 200 nM or HeLa nuclear extract at 200 μg/ml, which should allow detection of weak binding activity. […] This was confirmed in a second EMSA using the two ER subtypes at the same concentrations (FIG. 9B). Furthermore, the binding affinities to the two forms were very close, as shown in the EMSA, and this was more carefully compared with the binding curves of AptER-1 (FIG. 8A). […] In the presence of HeLa nuclear extract (FIG. 9A), no specific shifted band could be observed.

[7] = molecular target: T2, Human estrogen receptor alpha (hERα), …; assay: filter; same buffer, 37 C; Hill n>1; conditions: tags: none stated; baculovirus/insect cells; Invitrogen P2187 or EMD4 Biosciences 330655; label: 32P-CTP internal
Experimental: The dissociation constant (Kd) of the AptER-1, -2, -3, and -4 were measured using a nitrocellulose filter binding assay. A constant trace amount of [γ-³²P]-CTP incorporated RNA aptamer (˜0.1 nM) was titrated with increasing amounts of the target protein ranging from 5 to 150 nM. The binding activity at each concentration was determined as % binding, by calculating the radioactive signal of the RNA-protein complex retained on the filter as a percentage of the signal at the highest protein concentration (saturated) used. The assays were performed in triplicates for each aptamer. A binding curve was constructed using Sigma Plot 9.0.1, with average binding affinity (% binding) as a function of the protein concentration using a sigmoidal equation (Hill equation, 3 parameters). Apparent Kd was the protein concentration where half of the maximal binding activity was achieved, and were calculated from the data points by using Sigma Plot. […] The first 3 aptamers were isolated in in vitro selection I, and their affinity rank explains the relative abundance in the final selected library. More specifically, it is believed that AptER-1 dominated the final selected pool because it was the strongest binder. AptER-4 was the weakest binder, and would not have been easily identified in the selection I libraries.

hERα DNA-binding domain = hERα DNA-binding domain (Homo sapiens, UniProt P03372 P03372:180-268); assay: EMSA; 100-400 nM DBD, 5 nM DNA; conditions: tags: N-terminal His6; E. coli BL21(DE3); label: 5'-32P; hairpin with GAAA tetraloop, ERE in stem
Experimental: (§1) No binding activity to RNase inhibitor (control) or DBD & RNase inhibitor was detected. The binding reactions were resolved on the same type of gel as above. […] End-radiolabeled ERE-50mer at 5 nM was mixed with 100× or 400× more concentrated unlabeled competitors ERE-50mer, AptER-1, -2 and -3 RNA or an early generation pool in hERα selection G1 before addition of hERα (40 nM). Only cold ERE-50mer disrupted radioactive ERE-hERα complex.
Class I aptamers bound with similar affinities to both subtypes of ER, which share the highest homology (96%) in the DBD. This raised the possibility that the target site of Class I aptamers was located within the DBD. Whether the aptamers bind to the DBD was tested in binding assays using a recombinant hERα-DBD. It was expressed as a His₆-tagged fusion protein in E. coli BL21 (DE3) and purified as described in the Materials and Methods. To verify its ERE-binding capability, a DNA EMSA was performed. DNA oligo ERE-50mer contains a GAAA tetra loop, which forces the oligo to form a hairpin. A copy of Xenopus laevis vitellogenin A2 ERE (5′-[…]-3′, SEQ ID NO: 73) was presented in the stem of a hairpin. […] However, in both EMSA (FIG. 11B) and filter-binding assay, no association was detected between AptER-1 and DBD. […]

[8] = molecular target: T2, Human estrogen receptor alpha (hERα), …; assay: EMSA; not competed by AptER-1, -2, -3 or -4; competed by cold ERE; conditions: tags: none stated; baculovirus/insect cells; Invitrogen P2187 or EMD4 Biosciences 330655; label: 5'-32P; hairpin with GAAA tetraloop, ERE in stem
Experimental: as §1
Whether the aptamers bind to the DNA binding site on the full-length hERα was tested in cross-competition assays using ERE-50mer as a specific competitor. Radiolabeled ERE-50mer was competed with 100× or 400× more concentrated nonradioactive competitors ERE-50mer, AptER-1, -2, -3 or Generation 1 pool of hERα selection G1 (see Example 1). Radiolabeled ERE-50mer at 5 nM was mixed with the competitors before the addition of hERα at 50 nM. The binding reaction was set up as described in the Materials and Methods, and electrophorised in a 4.8% polyacrylamide gel (acrylamide:bis-acrylamide=50:1) in ½ ΔTGB. ERE-50mer served as a positive control of competition, whereas the G1 pool was a negative control. […] This agreed with the result from a second cross-competition assay between radiolabeled AptER-1 and unlabeled ERE-50mer for binding to human ERα (FIG. 9A).

[9] = molecular target: T2, Human estrogen receptor alpha (hERα), …; assay: EMSA; 200 nM ERα; one complex; BSA and yeast RNA competitors; conditions: tags: none stated; baculovirus/insect cells; Invitrogen P2187 or EMD4 Biosciences 330655; label: labeled
[10] = molecular target: T2, Human estrogen receptor alpha (hERα), …; assay: EMSA; 35 nM hERα; fully active; conditions: tags: none stated; baculovirus/insect cells; Invitrogen P2187 or EMD4 Biosciences 330655; label: 32P internal; stem-loop

T2 sequence (P03372 whole entry, one chain of several): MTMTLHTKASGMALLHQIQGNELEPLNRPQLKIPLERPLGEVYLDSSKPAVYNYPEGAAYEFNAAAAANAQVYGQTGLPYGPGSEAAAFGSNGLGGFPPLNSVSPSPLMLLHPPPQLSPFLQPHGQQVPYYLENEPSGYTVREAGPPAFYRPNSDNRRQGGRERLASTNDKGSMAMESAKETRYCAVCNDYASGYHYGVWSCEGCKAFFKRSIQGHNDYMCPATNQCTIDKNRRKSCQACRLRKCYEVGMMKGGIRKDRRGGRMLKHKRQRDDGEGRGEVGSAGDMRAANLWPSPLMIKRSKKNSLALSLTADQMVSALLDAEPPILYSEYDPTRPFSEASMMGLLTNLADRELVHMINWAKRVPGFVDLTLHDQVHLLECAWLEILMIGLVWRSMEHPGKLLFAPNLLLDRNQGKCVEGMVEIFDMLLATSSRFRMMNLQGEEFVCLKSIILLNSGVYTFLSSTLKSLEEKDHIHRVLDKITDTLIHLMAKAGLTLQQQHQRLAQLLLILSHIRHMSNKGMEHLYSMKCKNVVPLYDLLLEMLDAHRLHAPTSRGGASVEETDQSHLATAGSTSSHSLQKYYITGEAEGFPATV
Sequence of Human estrogen receptor beta (hERβ) (Q92731 whole entry, one chain of several): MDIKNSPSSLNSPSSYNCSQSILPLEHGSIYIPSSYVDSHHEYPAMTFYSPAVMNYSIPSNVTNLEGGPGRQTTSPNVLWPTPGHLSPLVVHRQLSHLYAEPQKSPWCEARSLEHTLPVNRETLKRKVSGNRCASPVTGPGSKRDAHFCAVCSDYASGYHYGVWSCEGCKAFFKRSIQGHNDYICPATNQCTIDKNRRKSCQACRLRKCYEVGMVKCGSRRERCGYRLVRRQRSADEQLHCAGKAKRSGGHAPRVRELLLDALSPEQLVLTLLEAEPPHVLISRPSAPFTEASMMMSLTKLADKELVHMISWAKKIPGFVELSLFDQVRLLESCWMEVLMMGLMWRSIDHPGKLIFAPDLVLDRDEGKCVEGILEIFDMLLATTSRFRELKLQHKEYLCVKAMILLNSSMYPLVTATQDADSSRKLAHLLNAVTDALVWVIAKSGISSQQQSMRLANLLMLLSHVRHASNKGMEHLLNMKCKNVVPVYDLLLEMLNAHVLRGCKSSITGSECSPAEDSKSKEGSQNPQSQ
Sequence of hERα DNA-binding domain (P03372 180-268, one chain of several): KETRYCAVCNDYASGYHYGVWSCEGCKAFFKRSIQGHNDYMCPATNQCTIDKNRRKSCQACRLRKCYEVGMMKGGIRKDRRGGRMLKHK

“GCGUGACGGGCACCGCGAACAAAACGCAAGACAGAGUGCCGACAAGAGCACUACAAGCCCGUCCAUACUCCGGCACCGCGAACAAAACGCAAGACAGAGUGCCGACAAGAGCACUAACAGCCGGAGGCGCUU [AptER-1x2 (expressed dimer)]” was tested, and the binding signal (fold (control reference)) (SNAP-tag (control)) was 1.

B1: sB65 (65nt truncated clone B65) (ssRNA)
RNA: GGGCAGAAGCACCGCGAACAAAACGCAAGACAGAGUGCCGACAAGAGCACUACAAGCUUCUGCCC
B1: binds [1].

B2: AptER-1(65nt) (sB63) (ssRNA)
RNA: B1 RNA with A8G
In the case of B2, the Kd [2] is reported as roughly 30 nM.

B3: AptER-1x2(138nt) dimer (ssRNA)
RNA: GGAUCCGUGACGGGCACCGCGAACAAAACGCAAGACAGAGUGCCGACAAGAGCACUACAAGCCCGUCCAUACUCCGGCACCGCGAACAAAACGCAAGACAGAGUGCCGACAAGAGCACUAACAGCCGGAGGCGGAUCC
In the case of B3, the Kd [3] is reported as less than 15 nM.

GGGCACCGCGAACAAAACGCAAGACAGAGUGCCC (ssRNA) [AptER-1 34nt version]: no binding [4].

B4: ERL5-5 (ssRNA)
RNA: GGGAGAAUUCAACUGCCAUCUACAGAAGGACCGCGAGGGUAAAAACCACGCACGACAGAGUAUAACAAAACAACUACAAGCUUCUGGACUCGGU
B4: binds [5].

B5: ERL5-4 (ssRNA)
RNA: GGGAGAAUUCAACUGCCAUCUAACAGCCAAGUAAGCGACAACGACAAUCAAUGACGCGAACAAUCCGAAAGAACUACAAGCUUCUGGACUCGGU
B5: binds [5].

B6: AptER-3 (ssRNA)
RNA: GGGAGAAUUCAACUGCCAUCUAGGCGACCCAGGGCCGGGACGCAAAGCAGCCAAAACAGACGGCCCCAGUCAGGGAGUUACUACAAGCUUCUGGACUCGGU
For B6, the binding result [6] was “binds” and the Kd [7] was 30 nM.

AGTCAGGTCACAGTGACCTGATCGAAAGATCAGGTCACTGTGACCTGACT (structured_DNA) [ERE-50mer]: binds (hERα DNA-binding domain); binds [8].

B7: AptER-2 (ssRNA)
RNA: GGGAGAAUUCAACUGCCAUCUAGGCACACGCGAGAUAGAGCGAGGCCUCCAAAAAUGGCCACGCCAGGAAGCAAGUACUACAAGCUUCUGGACUCGGU
In the case of B7, the binding result [6] is reported as “binds” and the Kd [7] is reported as 21 nM.

B8: ERL5-1 (ssRNA)
RNA: GGGAGAAUUCAACUGCCAUCUACAAGCCAAGCAAGCGAGCAAAAAACGCGAGCAUCCGAGCUCCAAGACGUACUACAAGCUUCUGGACUCGGU
B8: binds [9].

B9: AptER-1(53nt) (ssRNA)
RNA: GGGCACCGCGAACAAAACGCAAGACAGAGUGCCGACAAGAGCACUACAAGCCC
B9: binds [10].

B10: ERL5-6 (ssRNA)
RNA: GGGAGAAUUCAACUGCCAUCUAAAUGAAAGGACGCACACUACGUGUCCUACAAACACAGAAACAAAAACCGAACUACAAGCUUCUGGACUCGGU
B10: binds [5].

Source: patent US20150031754, “APTAMER MODULATORS OF ESTROGEN RECEPTORS” (RESEARCH FOUNDATION OF STATE UNIVERSITY OF NEW YORK AT …, published 2015)
